One data set concerns the target CAR (Homo sapiens) (UniProt P78310). Conditions: cited from earlier work.
A further data set concerns the target CD31 (Homo sapiens) (UniProt P16284). Conditions: cited from earlier work.
For another data set, the target named is CD150 (Homo sapiens) (UniProt Q13291). The experiment in a line: SPR. Conditions: cited from earlier work.
In another data set the target is NCAM (UniProt P13591). The note with it: cited from earlier work.
Data set [1] concerns the molecule itself. The experiment in a line: SPR. (In general: Surface plasmon resonance follows binding to a sensor surface in real time, without labels.)
Data set [2] concerns the molecule itself. In words: SPR. The source holds these as a separate data set.

Where “and” joins values, the source holds several entries; their conditions need not be identical. Equal values may be shown once.

The values that follow come from PMC280649 (BMC Biochemistry, 2003).

As a reminder, the Kd is the constant that tells how readily two partners part at equilibrium. One may read the koff as the first-order rate constant of dissociation.

As for CAR (from UniProt P78310), the Kd in the data set with CAR (Homo sapiens) is 16 µM.

With CD31 (from UniProt P16284), in the data set with CD31 (Homo sapiens), the Kd was 12.5 µM. With CD150 (from UniProt Q13291), the Kd in the data set with CD150 (Homo sapiens) was 200 µM. For NCAM (from UniProt P13591), the Kd with NCAM is 100 µM.

B1: mCD147d0-2rCD4d3+4 (mouse CD147 domains 0 to 2 fused to rat CD4 domains 3 and 4) (domain or fragment, UniProt P18572 22-325, looked up)
chain: AAGFLKAPLSQERWAGGSVVLHCEAVGSPIPEIQWWFEGNAPNDSCSQLWDGARLDRVHIHAAYRQHAASSLSVDGLTAEDTGTYECRASSDPDRNHLTRPPRVKWVRAQASVVVLEPGTIQTSVQEVNSKTQLTCSLNSSGVDIVGHRWMRGGKVLQEDTLPDLHTKYIVDADDRSGEYSCIFLPEPVGRSEINVEGPPRIKVGKKSEHSSEGELAKLVCKSDASYPPITDWFWFKTSDTGEEEAITNSTEANGKYVVVSTPEKSQLTISNLDVNVDPGTYVCNATNAQGTTRETISLRVRSR
modifications: biotin on the C-terminal biotinylation sequence (BirA enzyme) in the immobilised copy; the soluble copy was unbiotinylated
As for B1, in the data set “SPR [1]”, the Kd is 39 µM and 35 µM. Moreover, in the data set “SPR [2]”, the off-rate constant (koff) is 0.7 s⁻¹ and the t1/2 came to 1 s.
